Data taken from article PMC9482650, “Quantitative fragmentomics allow affinity mapping of interactomes” (Nature Communications, 2022).

T1: SNTB1, Q13884
T1 sequence (Q13884 107-205, limits assumed, looked up): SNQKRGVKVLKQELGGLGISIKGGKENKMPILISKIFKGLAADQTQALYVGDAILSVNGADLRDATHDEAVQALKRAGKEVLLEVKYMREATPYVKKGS

T2: PARD3B_1, Q8TEW8
T2 sequence (Q8TEW8 196-299, limits assumed, looked up): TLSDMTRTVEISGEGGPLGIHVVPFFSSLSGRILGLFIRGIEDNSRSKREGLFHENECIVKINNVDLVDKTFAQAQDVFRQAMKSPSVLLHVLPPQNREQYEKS

T3: DLG3_2, Q92796
T3 sequence (Q92796 221-321, limits assumed, looked up): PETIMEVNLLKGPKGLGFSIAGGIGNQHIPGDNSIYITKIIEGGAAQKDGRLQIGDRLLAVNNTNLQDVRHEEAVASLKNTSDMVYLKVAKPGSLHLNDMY

T4: DLG3_1, Q92796
T4 sequence (Q92796 125-227, limits assumed, looked up): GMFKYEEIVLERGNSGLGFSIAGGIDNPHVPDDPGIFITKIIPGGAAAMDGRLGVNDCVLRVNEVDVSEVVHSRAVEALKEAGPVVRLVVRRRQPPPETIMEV

T5: MPDZ_12, O75970
T5 sequence (O75970 1857-1958, limits assumed, looked up): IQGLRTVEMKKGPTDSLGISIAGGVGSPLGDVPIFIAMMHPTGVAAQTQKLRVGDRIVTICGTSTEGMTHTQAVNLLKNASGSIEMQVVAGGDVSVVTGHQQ

T6: RAPGEF6, Q8TEU7
T6 sequence (Q8TEU7 525-625, limits assumed, looked up): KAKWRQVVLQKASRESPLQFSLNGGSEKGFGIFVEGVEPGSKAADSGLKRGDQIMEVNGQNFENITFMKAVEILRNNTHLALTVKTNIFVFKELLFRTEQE

T7: LNX2_2, Q8N448
T7 sequence (Q8N448 334-432, limits assumed, looked up): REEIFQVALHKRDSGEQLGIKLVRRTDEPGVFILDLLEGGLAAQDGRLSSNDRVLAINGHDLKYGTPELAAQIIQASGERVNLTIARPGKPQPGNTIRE

T8: GRIP1_5, Q9Y3R0
T8 sequence (Q9Y3R0 568-668, limits assumed, looked up): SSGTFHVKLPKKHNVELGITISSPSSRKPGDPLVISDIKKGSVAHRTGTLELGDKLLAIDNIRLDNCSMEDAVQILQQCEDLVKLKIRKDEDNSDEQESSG

T9: FRMPD1, Q5SYB0
T9 sequence (Q5SYB0 52-145, limits assumed, looked up): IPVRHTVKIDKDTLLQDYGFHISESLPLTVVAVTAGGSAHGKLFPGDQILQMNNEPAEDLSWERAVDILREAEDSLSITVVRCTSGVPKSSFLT

T10: TX1BP3, O14907
T10 sequence (O14907 10-122, limits assumed, looked up): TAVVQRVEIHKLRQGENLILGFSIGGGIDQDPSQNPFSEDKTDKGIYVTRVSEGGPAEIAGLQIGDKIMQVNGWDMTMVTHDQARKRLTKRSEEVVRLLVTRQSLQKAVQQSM


Key:
Assay in all cases: holdup assay
Set-up in all cases: key: below the threshold = too weak to quantify, mostly under pKd 3.1 to 4
Conditions in all cases: plain residues with an end cap or a label only (N-terminal biotin on a linker: ado-ado)
GOPC, Q9HD26 = target: GOPC, Q9HD26
SCRIB_3, Q14160 = target: SCRIB_3, Q14160
MAGI2_5, Q86UL8 = target: MAGI2_5, Q86UL8
HTRA2, O43464 = target: HTRA2, O43464
MAST1, Q9Y2H9 = target: MAST1, Q9Y2H9
SNTB1, Q13884 = target: T1, SNTB1, Q13884
TJP2_1, Q9UDY2 = target: TJP2_1, Q9UDY2
PARD3B_1, Q8TEW8 = target: T2, PARD3B_1, Q8TEW8
PTPN3, P26045 = target: PTPN3, P26045
MAST2, Q6P0Q8 = target: MAST2, Q6P0Q8
DLG3_2, Q92796 = target: T3, DLG3_2, Q92796
GORASP2, Q9H8Y8 = target: GORASP2, Q9H8Y8
MAGI2_4, Q86UL8 = target: MAGI2_4, Q86UL8
Inadl_8, Q8NI35 = target: Inadl_8, Q8NI35
DLG4_1, P78352 = target: DLG4_1, P78352
DLG3_1, Q92796 = target: T4, DLG3_1, Q92796
MPDZ_12, O75970 = target: T5, MPDZ_12, O75970
FRMPD2_1, Q68DX3 = target: FRMPD2_1, Q68DX3
RAPGEF6, Q8TEU7 = target: T6, RAPGEF6, Q8TEU7
LNX2_2, Q8N448 = target: T7, LNX2_2, Q8N448
Inadl_3, Q8NI35 = target: Inadl_3, Q8NI35
GRIP1_5, Q9Y3R0 = target: T8, GRIP1_5, Q9Y3R0
Inadl_6, Q8NI35 = target: Inadl_6, Q8NI35
PICK1, Q9NRD5 = target: PICK1, Q9NRD5
FRMPD1, Q5SYB0 = target: T9, FRMPD1, Q5SYB0
FRMPD2_2, Q68DX3 = target: FRMPD2_2, Q68DX3
TX1BP3, O14907 = target: T10, TX1BP3, O14907

Inadl_6, Q8NI35, sequence (Q8NI35 1058-1167): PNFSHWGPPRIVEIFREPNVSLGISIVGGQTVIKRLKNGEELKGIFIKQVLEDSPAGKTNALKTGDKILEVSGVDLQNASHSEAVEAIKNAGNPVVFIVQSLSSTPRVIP
FRMPD2_2, Q68DX3, sequence (Q68DX3 944-1038): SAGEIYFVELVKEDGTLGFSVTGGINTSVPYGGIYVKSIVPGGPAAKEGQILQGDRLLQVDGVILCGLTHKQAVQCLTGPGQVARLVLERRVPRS
MAGI2_5, Q86UL8, sequence (Q86UL8 915-1017): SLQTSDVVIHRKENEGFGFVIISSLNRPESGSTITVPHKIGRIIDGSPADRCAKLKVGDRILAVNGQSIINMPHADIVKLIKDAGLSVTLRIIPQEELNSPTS
MAST2, Q6P0Q8, sequence (Q6P0Q8 1099-1202): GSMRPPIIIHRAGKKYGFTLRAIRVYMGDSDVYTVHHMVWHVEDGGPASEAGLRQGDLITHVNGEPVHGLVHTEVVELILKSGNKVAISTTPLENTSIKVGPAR
TJP2_1, Q9UDY2, sequence (Q9UDY2 24-128): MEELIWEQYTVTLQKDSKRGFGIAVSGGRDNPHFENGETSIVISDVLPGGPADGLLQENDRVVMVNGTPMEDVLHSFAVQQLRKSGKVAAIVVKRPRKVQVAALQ
MAGI2_4, Q86UL8, sequence (Q86UL8 772-865): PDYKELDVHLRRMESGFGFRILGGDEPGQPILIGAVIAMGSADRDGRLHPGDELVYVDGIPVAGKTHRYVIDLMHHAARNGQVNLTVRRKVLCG
Inadl_3, Q8NI35, sequence (Q8NI35 359-469): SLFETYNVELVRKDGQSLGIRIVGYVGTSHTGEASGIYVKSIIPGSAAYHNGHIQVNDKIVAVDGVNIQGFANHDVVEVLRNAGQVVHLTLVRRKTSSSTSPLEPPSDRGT
SCRIB_3, Q14160, sequence (Q14160 999-1103): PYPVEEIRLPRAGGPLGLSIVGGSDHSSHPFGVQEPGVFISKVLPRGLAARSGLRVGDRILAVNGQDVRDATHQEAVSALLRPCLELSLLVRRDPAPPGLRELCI
HTRA2, O43464, sequence (O43464 355-458): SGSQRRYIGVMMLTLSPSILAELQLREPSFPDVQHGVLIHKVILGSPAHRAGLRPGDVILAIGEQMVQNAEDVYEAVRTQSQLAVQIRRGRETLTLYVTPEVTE
DLG4_1, P78352, sequence (P78352 62-152): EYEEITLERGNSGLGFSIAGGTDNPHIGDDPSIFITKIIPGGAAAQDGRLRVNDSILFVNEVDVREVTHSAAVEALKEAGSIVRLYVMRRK
PTPN3, P26045, sequence (P26045 505-587): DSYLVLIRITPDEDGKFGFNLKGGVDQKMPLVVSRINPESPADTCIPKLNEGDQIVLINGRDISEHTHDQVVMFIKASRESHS
FRMPD2_1, Q68DX3, sequence (Q68DX3 770-861): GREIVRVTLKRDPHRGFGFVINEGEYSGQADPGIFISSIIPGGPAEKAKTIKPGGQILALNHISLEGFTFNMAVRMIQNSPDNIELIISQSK
Inadl_8, Q8NI35, sequence (Q8NI35 1425-1530): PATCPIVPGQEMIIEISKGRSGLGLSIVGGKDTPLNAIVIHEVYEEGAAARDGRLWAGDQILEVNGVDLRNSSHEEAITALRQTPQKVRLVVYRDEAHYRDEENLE
MAST1, Q9Y2H9, sequence (Q9Y2H9 962-1065): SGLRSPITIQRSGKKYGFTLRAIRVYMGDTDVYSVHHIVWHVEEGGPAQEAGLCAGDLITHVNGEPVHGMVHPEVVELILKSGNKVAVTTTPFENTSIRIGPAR
PICK1, Q9NRD5, sequence (Q9NRD5 17-115): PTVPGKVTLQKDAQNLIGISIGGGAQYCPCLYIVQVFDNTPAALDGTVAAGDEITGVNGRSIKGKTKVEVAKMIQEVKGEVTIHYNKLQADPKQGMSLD

Row | Binder | pKd (GOPC, Q9HD26) | pKd (SCRIB_3, Q14160) | pKd (MAGI2_5, Q86UL8) | pKd (HTRA2, O43464) | pKd (MAST1, Q9Y2H9) | pKd (SNTB1, Q13884) | pKd (TJP2_1, Q9UDY2) | pKd (PARD3B_1, Q8TEW8) | pKd (PTPN3, P26045) | pKd (MAST2, Q6P0Q8) | pKd (DLG3_2, Q92796) | pKd (GORASP2, Q9H8Y8) | pKd (MAGI2_4, Q86UL8) | pKd (Inadl_8, Q8NI35) | pKd (DLG4_1, P78352) | pKd (DLG3_1, Q92796) | pKd (MPDZ_12, O75970) | pKd (FRMPD2_1, Q68DX3) | pKd (RAPGEF6, Q8TEU7) | pKd (LNX2_2, Q8N448) | further results
1 | LEPAVRSSEL [SH2D3C, Q8N5H7] | below the threshold | 4.39 | 4.28 | below the threshold | 4.49 | 4.11 | below the threshold | below the threshold | 4.82 | 5.51 | below the threshold | below the threshold | below the threshold | below the threshold | below the threshold | below the threshold | below the threshold | below the threshold | below the threshold | below the threshold | pKd (Inadl_3, Q8NI35): below the threshold; pKd (GRIP1_5, Q9Y3R0): below the threshold; pKd (Inadl_6, Q8NI35): below the threshold; pKd (PICK1, Q9NRD5): below the threshold; pKd (FRMPD1, Q5SYB0): below the threshold; pKd (FRMPD2_2, Q68DX3): below the threshold; pKd (TX1BP3, O14907): 3.86
2 | RELVMRVTTV [MARCHF4, Q9P2E8] | 5.03 | 4.73 | 4.05 | 3.83 | 4.61 | 5.11 | 3.86 | below the threshold | 4.54 | 5.29 | 5.22 | 5.54 | 4.82 | 5.5 | 5.03 | 4.38 | below the threshold | 3.48 | below the threshold | 5.27 | pKd (Inadl_3, Q8NI35): 4.03; pKd (GRIP1_5, Q9Y3R0): below the threshold; pKd (Inadl_6, Q8NI35): 3.95; pKd (PICK1, Q9NRD5): below the threshold; pKd (FRMPD1, Q5SYB0): below the threshold; pKd (FRMPD2_2, Q68DX3): 4.06; pKd (TX1BP3, O14907): 4.75
3 | QFTLRHWLKV [SLC6A3, Q01959] | 3.51 | 3.51 | below the threshold | 4.06 | 4.24 | below the threshold | below the threshold | 3.87 | below the threshold | 4.82 | below the threshold | 4.56 | 3.5 | below the threshold | below the threshold | below the threshold | below the threshold | 3.71 | below the threshold | 4.84 | pKd (Inadl_3, Q8NI35): below the threshold; pKd (GRIP1_5, Q9Y3R0): below the threshold; pKd (Inadl_6, Q8NI35): below the threshold; pKd (PICK1, Q9NRD5): 3.69; pKd (FRMPD1, Q5SYB0): 3.57; pKd (FRMPD2_2, Q68DX3): below the threshold; pKd (TX1BP3, O14907): below the threshold
4 | DQPLEKSTKL [AKAP10, O43572] | 3.86 | 4.14 | 4.02 | below the threshold | 4.55 | 3.99 | below the threshold | 4.15 | 4.62 | 5.41 | 4.14 | below the threshold | below the threshold | below the threshold | below the threshold | below the threshold | 3.73 | below the threshold | below the threshold | below the threshold | pKd (Inadl_3, Q8NI35): below the threshold; pKd (GRIP1_5, Q9Y3R0): below the threshold; pKd (Inadl_6, Q8NI35): below the threshold; pKd (PICK1, Q9NRD5): below the threshold; pKd (FRMPD1, Q5SYB0): below the threshold; pKd (FRMPD2_2, Q68DX3): below the threshold; pKd (TX1BP3, O14907): below the threshold
